Sequences and labels used below:
B1: NAPTin-9 (protein)
chain: NPSCGENERHDECSRKECDPKCKYDGTEEKDDEKPVVCLTRVCYGDCICRDGFLRNKNGACVKAEDCELDNMEFI
modifications: Sequence derived from Ancylostoma caninum or Synthetic
B2: NAPTin-4 (protein)
chain: NPSCGENERHDECSRKECDPKCKYDGTEEKDDEKPVVCLTRVCYGDCICRDGFLRNKNGACVKAEDCELDNME
modifications: Sequence derived from Ancylostoma caninum or Synthetic
B3: NAPTin-6 (protein)
chain: NPSCGENERHDECSRKECDPKCKYDGTEEKDDEKPVVCLTRVCYGDCICRDGFLRNKNGACVKAEDCE
modifications: Sequence derived from Ancylostoma caninum or Synthetic
B4: NAPTin-8 (protein)
chain: NPSCGENERHDECSRKECDPKCKYDGTEEKDDEKPVVCLTRVCYGDCICRDGFLRNKNGACVKAEDCELDNMEF
modifications: Sequence derived from Ancylostoma caninum or Synthetic
B5: NAPTin-2 (protein)
chain: NPSCGENERHDECSRKECDPKCKYDGTEEKDDEKPVVCLTRVCYGDCICRDGFLRNKNGACVKAEDCELDN
modifications: Sequence derived from Ancylostoma caninum or Synthetic

T2 sequence (P00742 41-179 limits assumed): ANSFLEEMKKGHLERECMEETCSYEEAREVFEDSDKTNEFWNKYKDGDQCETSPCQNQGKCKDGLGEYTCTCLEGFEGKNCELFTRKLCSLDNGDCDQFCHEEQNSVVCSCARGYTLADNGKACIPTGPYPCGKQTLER
T2 sequence (P00742 235-488 limits assumed): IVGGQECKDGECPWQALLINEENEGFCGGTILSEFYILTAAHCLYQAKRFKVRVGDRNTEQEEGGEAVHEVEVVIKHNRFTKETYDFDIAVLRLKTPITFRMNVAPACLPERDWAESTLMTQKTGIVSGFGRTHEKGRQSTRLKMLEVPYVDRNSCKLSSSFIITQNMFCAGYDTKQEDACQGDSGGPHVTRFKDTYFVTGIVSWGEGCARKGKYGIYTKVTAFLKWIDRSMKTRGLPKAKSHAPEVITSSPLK
T3 sequence (P08709 61-212 limits assumed): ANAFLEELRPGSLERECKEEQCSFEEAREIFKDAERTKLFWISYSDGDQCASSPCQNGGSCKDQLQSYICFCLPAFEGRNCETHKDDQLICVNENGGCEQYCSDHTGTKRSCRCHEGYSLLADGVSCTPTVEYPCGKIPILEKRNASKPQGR
T3 sequence (P08709 213-466 limits assumed): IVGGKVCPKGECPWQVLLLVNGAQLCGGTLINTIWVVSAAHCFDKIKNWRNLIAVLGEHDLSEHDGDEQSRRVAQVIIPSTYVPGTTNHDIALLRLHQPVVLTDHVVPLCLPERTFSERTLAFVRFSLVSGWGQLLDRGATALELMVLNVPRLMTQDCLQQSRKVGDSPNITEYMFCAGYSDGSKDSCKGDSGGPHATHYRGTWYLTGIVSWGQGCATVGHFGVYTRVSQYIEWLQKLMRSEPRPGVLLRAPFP
T3 sequence (P13726 33-251 partner limits assumed): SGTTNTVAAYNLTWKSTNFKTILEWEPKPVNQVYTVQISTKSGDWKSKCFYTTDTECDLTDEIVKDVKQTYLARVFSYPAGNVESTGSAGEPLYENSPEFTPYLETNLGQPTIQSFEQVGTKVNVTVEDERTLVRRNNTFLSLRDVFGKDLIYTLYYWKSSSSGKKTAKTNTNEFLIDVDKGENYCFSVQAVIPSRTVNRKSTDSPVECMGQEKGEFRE

For one experiment, the target named is T1, human fXIIa (Homo sapiens, UniProt P00748).
T1 construct: Human coagulation factors IIa (thrombin), Xa, XIa, XIIa, EGR-fXa; purchased Haematologic Technologies Inc (United States)
T1 sequence (P00748 373-615 limits assumed): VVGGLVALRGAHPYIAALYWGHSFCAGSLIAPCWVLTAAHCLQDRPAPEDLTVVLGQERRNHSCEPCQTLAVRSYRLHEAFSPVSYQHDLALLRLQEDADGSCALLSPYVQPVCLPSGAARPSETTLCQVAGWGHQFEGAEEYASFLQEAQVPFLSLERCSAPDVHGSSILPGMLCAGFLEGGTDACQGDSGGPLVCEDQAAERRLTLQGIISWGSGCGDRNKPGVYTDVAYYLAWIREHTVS
T1 sequence (P00748 20-372 limits assumed): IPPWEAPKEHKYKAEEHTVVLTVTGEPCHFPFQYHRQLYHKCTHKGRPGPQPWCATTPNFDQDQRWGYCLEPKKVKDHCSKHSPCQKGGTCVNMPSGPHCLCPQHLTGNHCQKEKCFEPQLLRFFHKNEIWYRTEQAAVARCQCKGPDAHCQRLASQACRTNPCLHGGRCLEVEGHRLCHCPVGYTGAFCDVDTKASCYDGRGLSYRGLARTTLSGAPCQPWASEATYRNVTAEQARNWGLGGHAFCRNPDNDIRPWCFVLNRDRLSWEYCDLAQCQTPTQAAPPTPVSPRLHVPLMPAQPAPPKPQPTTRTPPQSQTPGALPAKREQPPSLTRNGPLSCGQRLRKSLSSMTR
The experiment can be described thus: Chromogenic assay, fXIIa. Format: biochemical. As to conditions: 100 nM. The source says:
(§1) The recombinant anticoagulant polypeptides in the present invention were expressed in E. coli and purified in our laboratory, of which the activities against coagulation factors were investigated by chromogenic assays. Human coagulation factors IIa (thrombin), Xa, XIa, XIIa, EGR-fXa were products of Haematologic Technologies Inc (United States). Recombinant fVIIa was products of Novo-Nordisk (Denmark). Recombinant soluble tissue factor (sTF) was purchased from Protgen (Beijing, China). The following chromogenic substrates were used for these coagulation factor assays: S2765 for human fXa, S2288 for human fVIIa and fIIa, 52366 for human fXIa and fXIIa, respectively.
(§2) The chromogenic assays were carried out in a total reaction volume of 100 μl in individual wells of a 96-well microtiter plate. 50 μl fIIa, fXa, fXIa, or fXIIa (final concentration: 1 nM) was incubated with 10 μl recombinant anticoagulant polypeptide at various concentrations (or PBS control group) Assays for the detection activity of fVIIa: 50 μl fVIIa+TF (1 μM) and EGR-fXa (final concentration 500 nM) was incubated for 15 mins at 25° C., respectively. After the addition of 40 μl of prewarmed chromogenic substrate to a final concentration of 400 μM, the changes of absorbance at 405 nm were monitored by using an E1x808 kinetic microtiter reader. The data were used to calculate the velocities of response.
With B1, the “effect on fXIIa activity (in words)” value is “without affecting”.
For the molecule B2, the “effect on fXIIa activity (in words)” value is recorded as “without affecting”.
Regarding B3, the “effect on fXIIa activity (in words)” value is given as “without affecting”.
As to B4, the “effect on fXIIa activity (in words)” value is listed as “without affecting”.
The same measure, in the same setting: the same measure for B5: “without affecting”.

The same experiment, now with this note: 200 nM.
With B2, the “effect on fXIIa activity (in words)” value is “without affecting”.
On the same count and under the same terms, the same measure for B3: “without affecting”; for B5: “without affecting”.

The next experiment has as its target T2, human fXa (Homo sapiens, UniProt P00742).
T2 construct: Human coagulation factors IIa (thrombin), Xa, XIa, XIIa, EGR-fXa; purchased Haematologic Technologies Inc (United States)
The experiment can be described thus: Chromogenic assay, fXa. Format: biochemical. As to conditions: 100 nM.
Excerpt: as §1, §2
With B1, the “effect on fXa activity (in words)” value is on record as “without affecting”.
Same read-out and setting: the same measure for B2: “without affecting”.
On to B3, for which the “effect on fXa activity (in words)” value is “without affecting”.
Same read-out and setting: the same measure for B4: “without affecting”; for B5: “without affecting”.

The same experiment, now with this note: 200 nM.
For the molecule B2, the “effect on fXa activity (in words)” value is “without affecting”.
Turning to B3, the “effect on fXa activity (in words)” value was “without affecting”.
The same measure, in the same setting: the same measure for B5: “without affecting”.

The next experiment concerns normal human plasma. The experiment can be described thus: aPTT assay in normal human plasma. In kind it is biochemical. As to conditions: 100 nM and 500 nM. The procedure: (§3) The recombinant anticoagulant polypeptides were expressed in Escherichia coli and purified in our laboratory. Anticoagulant activity was determined by measuring the aPTT and PT.
For the aPTT assay, 10 μl recombinant protein at various concentrations was mixed with 50 μl fresh normal human plasma, 20 μl aPTT reagent (MDC Hemostasis, Germany) and incubated for 15 mins at 37° C. 20 μl 0.05 mol/L prewarmed CaCl2 was then added to initiate the clotting reaction. The clotting time was measured with the absorbance at 630 nm by using an E1x808 kinetic microtiter reader (BioTek, United States). Each concentration was repeated 3 times. The ratio of the mean aPTT value of each concentration to blank control group is multiples of prolonging the aPTT.
B1: the “prolongation of aPTT (in words)” value is recorded as “significantly prolong aPTT”.
On to B2, for which the “prolongation of aPTT (in words)” value was “significantly prolong aPTT”.
On the same count and under the same terms, the same measure for B3: “significantly prolong aPTT”; for B4: “significantly prolong aPTT”; for B5: “significantly prolong aPTT”.

Staying with this experiment, now noted: 100 nM, normal human plasma.
Turning to B1, the “aPTT” value came out at 80.8 ± 3.2 s.
B2: the “aPTT” value stood at 78.7 ± 3.7 s.
Consider B3, for which the “aPTT” value was determined as 79.5 ± 3.1 s.
Still for that read-out and setting: the result for B4 reads 79.7 ± 2.9 s; that for B5, 80.2 ± 5.1 s.

The experiment is the same for the next values; noted with them: 100 nM; ratio of mean aPTT to blank control.
With B1, the “multiples of prolonging aPTT” value was found to be 2.01.
The same measure, in the same setting: the result for B2 reads 1.96.
Same read-out and setting: the same measure for B3: 1.98; for B4: 1.99.
On the same count and under the same terms, the result for B5 reads 2.0.

Staying with this experiment, now noted: 500 nM, normal human plasma.
Turning to B1, the “aPTT” value was found to be 235.3 ± 5.4 s.
For B2, the “aPTT” value is 233.3 ± 4.5 s.
The same measure, in the same setting: the result for B3 reads 215.4 ± 5.6 s; that for B4, 238.6 ± 8.1 s; that for B5, 221.8 ± 6.3 s.

The same experiment, now with this note: 500 nM; ratio of mean aPTT to blank control.
On to B1, for which the “multiples of prolonging aPTT” value is recorded as 5.87.
With B2, the “multiples of prolonging aPTT” value was 5.82.
The same measure, in the same setting: the same measure for B3: 5.37; for B4: 5.95.
On the same count and under the same terms, the result for B5 reads 5.53.

Another experiment concerns normal human plasma. The experiment can be described thus: PT assay in normal human plasma. In kind it is biochemical. As to conditions: 100 nM. As for the experimental part:
as §3
For the PT assay, 10 μl recombinant protein at various concentration was mixed with 45 μl normal human plasma and incubated for 15 mins at 37° C. 45 μl prewarmed PT reagent (MDC Hemostasis, Germany) was then added and the clotting time was measured with the absorbance at 630 nm by using an E1x808 kinetic microtiter reader (BioTek, United States). Each concentration was repeated 3 times.
Turning to B1, the “prolongation of PT (in words)” value was “almost couldn't prolong PT”.
On the same count and under the same terms, the same measure for B4: “almost couldn't prolong PT”.

The experiment is the same for the next values; noted with them: 100 nM and 500 nM.
Consider B2, for which the “prolongation of PT (in words)” value is on record as “couldn't prolong PT”.
As for B3, the “prolongation of PT (in words)” value is given as “couldn't prolong PT”.
As for B5, the “prolongation of PT (in words)” value is recorded as “couldn't prolong PT”.

Staying with this experiment, now noted: 100 nM, normal human plasma.
B1: the “PT” value turned out to be 13.0 ± 0.7 s.
In the case of B2, the “PT” value stood at 12.4 ± 0.9 s.
The same measure, in the same setting: the same measure for B3: 12.4 ± 0.9 s; for B4: 12.8 ± 0.7 s; for B5: 11.7 ± 1.1 s.

The experiment is the same for the next values; noted with them: 500 nM.
Turning to B1, the “prolongation of PT” value is recorded as “less than 1.6 times”.
On the same count and under the same terms, the result for B4 reads “less than 1.6 times”.

Still in this experiment, the particulars now being: 500 nM, normal human plasma.
As for B1, the “PT” value came out at 19.6 ± 0.9 s.
As to B2, the “PT” value came out at 11.6 ± 0.3 s.
On the same count and under the same terms, the same measure for B3: 12.6 ± 0.4 s; for B4: 17.6 ± 0.6 s; for B5: 12.6 ± 0.5 s.

A further experiment addresses T3, fVIIa/TF (Homo sapiens, UniProt P08709).
T3 construct: Recombinant fVIIa was products of Novo-Nordisk (Denmark); purchased Novo-Nordisk (Denmark) for fVIIa; Protgen (Beijing, China) for sTF; Haematologic Technologies Inc for EGR-fXa
The experiment can be described thus: Chromogenic assay, fVIIa/TF. Format: biochemical. As to conditions: 100 nM.
Excerpt: as §1, §2
Take B1: the “effect on fVIIa/TF activity (in words)” value is “without affecting”.
As for B2, the “effect on fVIIa/TF activity (in words)” value was “without affecting”.
For B3, the “effect on fVIIa/TF activity (in words)” value is on record as “without affecting”.
Same read-out and setting: the same measure for B4: “without affecting”; for B5: “without affecting”.

The same experiment, now with this note: 200 nM.
Regarding B1, the “inhibition of the activity of fVIIa/TF” value was “about 15%”.
With B2, the “effect on fVIIa/TF activity (in words)” value is on record as “without affecting”.
With B3, the “effect on fVIIa/TF activity (in words)” value is “without affecting”.
B4: the “inhibition of the activity of fVIIa/TF” value is recorded as “about 15%”.
As for B5, the “effect on fVIIa/TF activity (in words)” value was “without affecting”.

The target in a further experiment is T4, human fIIa (thrombin) (Homo sapiens, UniProt P00734).
T4 construct: Human coagulation factors IIa (thrombin), Xa, XIa, XIIa, EGR-fXa; purchased Haematologic Technologies Inc (United States)
The experiment can be described thus: Chromogenic assay, fIIa (thrombin). As to conditions: 100 nM. In kind it is biochemical.
Excerpt: as §1, §2
With B1, the “effect on fIIa activity (in words)” value was “without affecting”.
Still for that read-out and setting: the same measure for B2: “without affecting”.
On the same count and under the same terms, the result for B3 reads “without affecting”; that for B4, “without affecting”; that for B5, “without affecting”.

The same experiment, now with this note: 200 nM.
For B2, the “effect on fIIa activity (in words)” value is given as “without affecting”.
For B3, the “effect on fIIa activity (in words)” value is “without affecting”.
B5: the “effect on fIIa activity (in words)” value is reported as “without affecting”.

In the next experiment the target is T5, human fXIa (Homo sapiens, UniProt P03951).
T5 construct: Human coagulation factors IIa (thrombin), Xa, XIa, XIIa, EGR-fXa; purchased Haematologic Technologies Inc (United States)
T5 sequence (P03951 19-387 limits assumed): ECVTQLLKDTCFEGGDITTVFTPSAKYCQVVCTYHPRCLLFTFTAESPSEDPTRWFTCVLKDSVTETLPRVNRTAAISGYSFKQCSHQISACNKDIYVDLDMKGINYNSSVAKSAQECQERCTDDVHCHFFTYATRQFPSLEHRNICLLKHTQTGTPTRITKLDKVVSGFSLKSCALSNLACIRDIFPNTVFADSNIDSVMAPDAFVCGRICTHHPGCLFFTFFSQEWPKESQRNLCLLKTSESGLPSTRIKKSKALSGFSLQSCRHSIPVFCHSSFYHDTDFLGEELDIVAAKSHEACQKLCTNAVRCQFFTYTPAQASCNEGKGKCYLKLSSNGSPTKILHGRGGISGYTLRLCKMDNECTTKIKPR
T5 sequence (P03951 388-625 limits assumed): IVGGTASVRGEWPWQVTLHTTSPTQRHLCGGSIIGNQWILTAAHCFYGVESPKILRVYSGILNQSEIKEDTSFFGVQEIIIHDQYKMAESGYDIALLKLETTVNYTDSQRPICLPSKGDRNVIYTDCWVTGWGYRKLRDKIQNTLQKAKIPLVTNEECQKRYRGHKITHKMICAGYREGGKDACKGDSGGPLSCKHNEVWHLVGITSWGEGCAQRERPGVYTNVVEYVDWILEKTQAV
The experiment can be described thus: Chromogenic assay, fXIa. As to conditions: 100 nM. Format: biochemical.
Excerpt: as §1, §2
Take B1: the “inhibition of the activity of fXIa” value is listed as “more than 90%”.
The same measure, in the same setting: the result for B2 reads “more than 90%”; that for B3, “more than 90%”; that for B4, “more than 90%”.
In the case of B5, the “inhibition of the activity of fXIa” value was “more than 90%”.

Still in this experiment, the particulars now being: 200 nM.
As to B2, the “inhibition of the activity of fXIa (in words)” value is on record as “almost completely inhibited”.
As to B3, the “inhibition of the activity of fXIa (in words)” value is listed as “almost completely inhibited”.
Same read-out and setting: the result for B5 reads “almost completely inhibited”.
